According to the nanobody polyreactivity screen of Harvey et al. (2022):

Assay: yeast display, Sf9 membrane polyspecificity reagent, FACS + sequencing; frameworks hold sequencing errors
How it was run: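 Polyreactivity labels are assigned by the sorting gate from which each nanobody was recovered. The gates were low and high (top ~1%), set on anti-HA fluorescence for expression and streptavidin fluorescence for reagent binding. Before sorting, galactose-induced (36–48 hours) yeast display cells were stained for 1 hour at 4 °C with 10% biotinylated, detergent-solubilized Sf9 membrane reagent.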

Sequence	polyreactivity (PSR sort gate)
QVQLVESGGGLVQAGGSLRLSCAASGGIFGYYTMGWYRQAPGKERELVAVITRSGGSTYYADSVKGRFTISRDNAKNTVYLQMNSLKPEDTAVYYCASGWRGGRYRYFAYDYWGQGTQVTVSS	high polyreactivity
QVQLVESGGGLVQAGGSLRLSCAASGGIFGYYTRGWYRQAPGKEREVVAAISRRGGSTYYADSVKGRFTISRDNAKNTVYLQMNSLKPEDTAVYYCAAGLSSGGTHYDYWGQGTQVTVSS	high polyreactivity
QVQLVESGGGLVQAGGSLRLSCAASGGIFIFYAMGWYRQAPGKERELVAAISNVSSTNYADSVKGRFTISRDNAKNTVYLQMNSLKPEDTAVYYCNAVGVPSEYYSWGQGTQVTVSS	low polyreactivity
QVQLVESGGGLVQAGGSLRLSCAASGGIFIRNAMGWYRQAPGKERELVATISNAGSTYADSVKGRFTISRDNAKNTVYLQMNSLKPEDTAVYYCNRDDWTYPVSQGLQEYDYWGQGTQVTVSS	low polyreactivity
QVQLVESGGGLVQAGGSLRLSCAASGGIFKYNAMGWYRQAPGKERELVAAIDTSGGSTYYADSVKGRFTISRDKAKNTVYLQMNSLKPDDTAVYYCAAELCLAQYYYWGQGTQVTVTS	low polyreactivity
QVQLVESGGGLVQAGGSLRLSCAASGGIFKYNAMGWYRQAPGKERELVAAIDTSGGSTYYADSVKGRFTISRDNAKNTVYLQMNSLKPEDTAVYYCAAELGLAQYYYWGQGTQVTVSS	low polyreactivity
QVQLVESGGGLVQAGGSLRLSCAASGGIFKYNAMGWYRQAPGKERELVAAIDTSGGSTYYADSVKGRFTISRDNAKNTVYLQMNSLKPEDTAVYYCARRWSYQRPSFEYDSWGQGTQVTVSS	low polyreactivity
QVQLVESGGGLVQAGGSLRLSCAASGGIFKYNAMGWYRTAPGKERELVAAIRSSGSTNYADSVKGRFTISRDNAKNTVYLQMNSLKPEETAVYYCNVAYGLQPYDYWGQGTQVNVSS	high polyreactivity
QVQLVESGGGLVQAGGSLRLSCAASGGIFLFNAMGWYRQAPGKERELVAAITDGGSTYYADSVKGRFTISRDNAKNTVYLQMNSLKPEDTAVYYCNAEGVSLYGYDSGVDSGEDYWGQGTQVTVSS	low polyreactivity
QVQLVESGGGLVQAGGSLRLSCAASGGIFLGNAMGWYRQAPGKERELVAAISWSGGSTYYADSVKGRFTISRDNAKNTVYLQMNSLKPEDTAVYYCAAAWNRGKYNYYYWGQGTQVTVSS	high polyreactivity
QVQLVESGGGLVQAGGSLRLSCAASGGIFLSNAMGWSRQAPGKERELVAAISRSGGSTYYADSVKGRFTISRDNAKNTVYLQMNSLKPEDTAVYYCAARWTRNYGMNYWGQGTKVTVSS	high polyreactivity
QVQLVESGGGLVQAGGSLRLSCAASGGIFLVYAMGWYRQAPGKERELVAAITPGGSTYYADSVKGRFTISRDNAKNTVYLQMNSLKPEDTAVYYCAKALYRREYSSGGYYRFDYWGQGTQVTVSS	high polyreactivity
QVQLVESGGGLVQAGGSLRLSCAASGGIFPAYAMGWYRQSPGKERELVASISANGGRTYYADSVKGRFTISRDNAKNSVYLQLNSLKPEDTAVYYCNASYRSGSWRFYYWGQGTQVTVSS	high polyreactivity
QVQLVESGGGLVQAGGSLRLSCAASGGIFPQYSMGWYTQAPGKERELVSAISRRGGRTYYADSVKGRFTISRDTAKNTVYLQMNSLKPEDTAVYYCAKRALTYTRYRVIYDYWGQGTQVTVSS	high polyreactivity
QVQLVESGGGLVQAGGSLRLSCAASGGIFPYYVMGWYRQAPGKERELVAAINSGGTTYYADSVKGRFTISRDNAKNTVYLQMNSLKPEDTAVYYCAAYYAGFGYNYWGQGTQVTVSS	low polyreactivity
QVQLVESGGGLVQAGGSLRLSCAASGGIFQGYAMGWYRQAAGKERELVAAITRGGSTNYADSVKGRFTISRDNAKNTVYLQMNSLKPEDTAVYYFAARPRWFKGYDYWGQGTQVTVSS	high polyreactivity

Sequence	polyreactivity (PSR sort gate)
QVQLVESGGGLVQAGGSLRLSCAASGGIFRANTMGWYRQAPGKERELVAVISWSGARTYYADSVKGRFTISRDNAKNTVYLQMNSLKPEDTAVYYCNARVPKLGSMYYWGHGTQVTVSS	high polyreactivity
QVQLVESGGGLVQAGGSLRLSCAASGGIFRGYAMGWYRQAPGKERELVAAISSRDGRTYYADSVKGRFTISRDNEKNTVYLQMNSLKPEDTAVYYCAASSFNNGHRYDYWGQGTQVTVSS	high polyreactivity
QVQLVESGGGLVQAGGSLRLSCAASGGIFRRYAMVWYRQAPGKERELVAGISYSGGSTYYADSVKGRFTISRDNAKNTVYLQMNSLKPEDTAVDYCATVGYVWYRSVNVWSPMDYWGQGTQVTVSS	high polyreactivity
QVQLVESGGGLVQAGGSLRLSCAASGGIFRSYAMGWYRQAPGKETELVAAISWSTVSTYADSVKGRFTISRDNAKNTVYLQMYSLKPEDSAVYYCAASPFEYCYYYYGLYKEYYYWGQGNQVTVSS	low polyreactivity
QVQLVESGGGLVQAGGSLRLSCAASGGIFRSYTMGWYRQAPGKERELVAAISSGASTSYADSVKGRFTISRDNAKNTVYLQMNSLKPEHTAVYYCAVGVLYAGYFYRYRYYYWGQGTQVTVSS	high polyreactivity
QVQLVESGGGLVQAGGSLRLSCAASGGIFRWYVMGWYRPEPGKERDFVAAISQSGGSTYYADSVKGRFTISRDNAKNTVYLQMNCLKPEDTAVYYCAAGFYHYRSFNFDYWGQGTQVTVSS	high polyreactivity
QVQLVESGGGLVQAGGSLRLSCAASGGIFSAYDMAWYRQAPGKERELVAAINSGGSTNYADSVKGRFTISRDNAKNTVYLQMNSLKPEDTAVYYCAAAKVSWFGLKYYYWGQGTQVTVSS	high polyreactivity
QVQLVESGGGLVQAGGSLRLSCAASGGIFSENAMGWYRQAPGKERELVAVITTSGGSTYYADSVKGRFTISRDNAKNTVYLQMNSLKPEDTAVYYCAADVLSWEYDYWGQGTQVTVSS	low polyreactivity
QVQLVESGGGLVQAGGSLRLSCAASGGIFSPNAMGWYRQAHGKERELVASISSNGGSTNYADSVKGRFTISRDNAKNTVYLQMNSLKPEDTAVYYCAGLQKRRSYWRPFYWGQGTQVTVSS	low polyreactivity
QVQLVESGGGLVQAGGSLRLSCAASGGIFSPNAMGWYRQAPGKERELVAAISSNGGSTNYADSVKGRFTISRDNAKNTVYLQMNSLKPEDTAVYYCAGLQKRRSYWRPFYWGQGTQVTVSS	low polyreactivity
QVQLVESGGGLVQAGGSLRLSCAASGGIFSSYAMGWYRQAPGKERELVATITSRGGSTYYADSVKGRFTISRDNAKNTVYLQMNSLKPEDTAVYYCAKEYRYYRRRYDYWGQGTQVTVSS	high polyreactivity
QVQLVESGGGLVQAGGSLRLSCAASGGIFSTYTMGWYRQAPGKERELVAAISQSGGTTYYADSVKGRFTISRDNAKNTVYLQMNSLKPEDTAVYYCAAEPTQADYDYWGQGTQVTVSS	low polyreactivity
QVQLVESGGGLVQAGGSLRLSCAASGGIFVQYTMGWYRQAPGKERELVAAISTGGSTYYADSVKGRFTISRDNAKNTVYLQMNSLKPEDTAVYYCAVVYRSQYSRYTSQWKEYYWGQGTQVTVSS	low polyreactivity
QVQLVESGGGLVQAGGSLRLSCAASGGIFVRYAMGVYRQAPGKERELVAAITGTGSSTYYADSVKGRFTISRDNAKNTVYLQMNSLKPEDTAVYYCAAARYSNYGYWGQGTQVTVSS	high polyreactivity
QVQLVESGGGLVQAGGSLRLSCAASGGIFWANAMGWHRQAPRKERELVATIHTIGDGTNYADSVKGRFTISRDNAKNTVYLQMNSLKPEDTAVYYCAAPYYYFAVYYGYIFEYDYWGQGTQVTVSS	low polyreactivity
QVQLVESGGGLVQAGGSLRLSCAASGGIFYHNAMGWYRQAPGKERELVAAISGRGGRTYYADSVKGRFTISRDNAKNTVYLPMNSLKPEDTAVYYCNAVVYSPYRYEYWGQGTQVTVSS	low polyreactivity
